For eight molecules, Kd, koff and kon results are on record in patent US20250145694A1 (GUANGDONG FEIPENG BIOLOGICAL, published 2025).

To fix the notation:
B1: Mutation 1-12 (antibody)
heavy: EVQMVESGGGLLKPGGSLKLSCAASGFTYSNYAMSWVRQTPEKRLEWVATISSGGSYSYYPDSVKGRFTISRDNAKNTLYLQMLSLRSEDTAMYYCARRDNYPGSTFMDYWGQGSSVTVSSAKTTPPSVYPLAPGSAAQTNSMVTLGCLVKGYFPEPVTVTWNSGSLSSGVHTFPAVLQSDLYTLSSSVTVPSSTWPSQTVTCNVAHPASSTKVDKKIVPRDCGCKPCICTVPEVSSVFIFPPKPKDVLTITLTPKVTCVVVDISKDDPEVQFSWFVDDVEVHTAQTKPREEQFNSTFRSVSELPIMHQDWLNGKEFKCRVNSAAFPAPIEKTISKTKGRPKAPQVYTIPPPKEQMAKDKVSLTCMITNFFPEDITVEWQWNGQPAENYKNTQPIMDTDGSYFVYSKLNVQKSNWEAGNTFTCSVLHEGLHNHHTEKSLSHSPG
light: DIQMTQTSSSLSASLGDRVTISCRASQEITNYLNWYQQKPDGTIKLLIYYTSRLHSGVSSRFSGSGSGTDYSLTISNLEQEDIATYFCQQGHTLPLTFDTGTKLELKRADAAPTVSIFPPSSEQLTSGGASVVCFLNNFYPKDINVKWKIDGSERQNGVLNSWTDQDSKDSTYSMSSTLTLTKDEYERHNSYTCEATHKTSTSPIVKSFNRNEC
notes: assembled FR/CDR/constant
B2: Mutation 1-19 (antibody)
heavy: EVQMVESGGGLLKPGGSLKLSCAASGFTFSNYAMSWVRQTPEKRLEWVATISSGGSYSYYPDSVKGRFTISRDNAKNTLYLQMLSLRSEDTAMYYCARRDNYFGSTFMDYWGQGSSVTVSSAKTTPPSVYPLAPGSAAQTNSMVTLGCLVKGYFPEPVTVTWNSGSLSSGVHTFPAVLQSDLYTLSSSVTVPSSTWPSQTVTCNVAHPASSTKVDKKIVPRDCGCKPCICTVPEVSSVFIFPPKPKDVLTITLTPKVTCVVVDISKDDPEVQFSWFVDDVEVHTAQTKPREEQFNSTFRSVSELPIMHQDWLNGKEFKCRVNSAAFPAPIEKTISKTKGRPKAPQVYTIPPPKEQMAKDKVSLTCMITNFFPEDITVEWQWNGQPAENYKNTQPIMDTDGSYFVYSKLNVQKSNWEAGNTFTCSVLHEGLHNHHTEKSLSHSPG
light: DIQMTQTSSSLSASLGDRVTISCRASQEITNYLNWYQQKPDGTIKLLIYYTSRLHSGVSSRFSGSGSGTDYSLTISNLEQEDIATYFCQQGHTLPLTFDTGTKLELKRADAAPTVSIFPPSSEQLTSGGASVVCFLNNFYPKDINVKWKIDGSERQNGVLNSWTDQDSKDSTYSMSSTLTLTKDEYERHNSYTCEATHKTSTSPIVKSFNRNEC
notes: assembled FR/CDR/constant
B3: Mutation 1-17 (antibody)
heavy: EVQMVESGGGLLKPGGSLKLSCAASGFTFSNYAMSWVRQTPEKRLEWVATISSGGSYSFYPDSVKGRFTISRDNAKNTLYLQMLSLRSEDTAMYYCARRDNYYGSSFMDYWGQGSSVTVSSAKTTPPSVYPLAPGSAAQTNSMVTLGCLVKGYFPEPVTVTWNSGSLSSGVHTFPAVLQSDLYTLSSSVTVPSSTWPSQTVTCNVAHPASSTKVDKKIVPRDCGCKPCICTVPEVSSVFIFPPKPKDVLTITLTPKVTCVVVDISKDDPEVQFSWFVDDVEVHTAQTKPREEQFNSTFRSVSELPIMHQDWLNGKEFKCRVNSAAFPAPIEKTISKTKGRPKAPQVYTIPPPKEQMAKDKVSLTCMITNFFPEDITVEWQWNGQPAENYKNTQPIMDTDGSYFVYSKLNVQKSNWEAGNTFTCSVLHEGLHNHHTEKSLSHSPG
light: DIQMTQTSSSLSASLGDRVTISCRASQDITNYLNWYQQKPDGTIKLLIYYTSRLHSGVSSRFSGSGSGTDYSLTISNLEQEDIATYFCQQGHTIPLTFDTGTKLELKRADAAPTVSIFPPSSEQLTSGGASVVCFLNNFYPKDINVKWKIDGSERQNGVLNSWTDQDSKDSTYSMSSTLTLTKDEYERHNSYTCEATHKTSTSPIVKSFNRNEC
notes: assembled FR/CDR/constant
B4: Mutation 1-14 (antibody)
heavy: EVQMVESGGGLLKPGGSLKLSCAASGFTYSNYAMSWVRQTPEKRLEWVATISSGGSYSFYPDSVKGRFTISRDNAKNTLYLQMLSLRSEDTAMYYCARRDNYFGSTFMDYWGQGSSVTVSSAKTTPPSVYPLAPGSAAQTNSMVTLGCLVKGYFPEPVTVTWNSGSLSSGVHTFPAVLQSDLYTLSSSVTVPSSTWPSQTVTCNVAHPASSTKVDKKIVPRDCGCKPCICTVPEVSSVFIFPPKPKDVLTITLTPKVTCVVVDISKDDPEVQFSWFVDDVEVHTAQTKPREEQFNSTFRSVSELPIMHQDWLNGKEFKCRVNSAAFPAPIEKTISKTKGRPKAPQVYTIPPPKEQMAKDKVSLTCMITNFFPEDITVEWQWNGQPAENYKNTQPIMDTDGSYFVYSKLNVQKSNWEAGNTFTCSVLHEGLHNHHTEKSLSHSPG
light: DIQMTQTSSSLSASLGDRVTISCRASQDITNYLNWYQQKPDGTIKLLIYYTSRLHSGVSSRFSGSGSGTDYSLTISNLEQEDIATYFCQQGHTIPLTFDTGTKLELKRADAAPTVSIFPPSSEQLTSGGASVVCFLNNFYPKDINVKWKIDGSERQNGVLNSWTDQDSKDSTYSMSSTLTLTKDEYERHNSYTCEATHKTSTSPIVKSFNRNEC
notes: assembled FR/CDR/constant
B5: Mutation 1-15 (antibody)
heavy: EVQMVESGGGLLKPGGSLKLSCAASGFTFSNYAMSWVRQTPEKRLEWVATISSGGSYSYYPDSVKGRFTISRDNAKNTLYLQMLSLRSEDTAMYYCARRDNYFGSSFMDYWGQGSSVTVSSAKTTPPSVYPLAPGSAAQTNSMVTLGCLVKGYFPEPVTVTWNSGSLSSGVHTFPAVLQSDLYTLSSSVTVPSSTWPSQTVTCNVAHPASSTKVDKKIVPRDCGCKPCICTVPEVSSVFIFPPKPKDVLTITLTPKVTCVVVDISKDDPEVQFSWFVDDVEVHTAQTKPREEQFNSTFRSVSELPIMHQDWLNGKEFKCRVNSAAFPAPIEKTISKTKGRPKAPQVYTIPPPKEQMAKDKVSLTCMITNFFPEDITVEWQWNGQPAENYKNTQPIMDTDGSYFVYSKLNVQKSNWEAGNTFTCSVLHEGLHNHHTEKSLSHSPG
light: DIQMTQTSSSLSASLGDRVTISCRASQEITNYLNWYQQKPDGTIKLLIYYTSRIHSGVSSRFSGSGSGTDYSLTISNLEQEDIATYFCQQGNTLPLTFDTGTKLELKRADAAPTVSIFPPSSEQLTSGGASVVCFLNNFYPKDINVKWKIDGSERQNGVLNSWTDQDSKDSTYSMSSTLTLTKDEYERHNSYTCEATHKTSTSPIVKSFNRNEC
notes: assembled FR/CDR/constant
B6: Mutation 1-13 (antibody)
heavy: EVQMVESGGGLLKPGGSLKLSCAASGFTFSNYAMSWVRQTPEKRLEWVATISSGGSYSFYPDSVKGRFTISRDNAKNTLYLQMLSLRSEDTAMYYCARRDNYPGSSFMDYWGQGSSVTVSSAKTTPPSVYPLAPGSAAQTNSMVTLGCLVKGYFPEPVTVTWNSGSLSSGVHTFPAVLQSDLYTLSSSVTVPSSTWPSQTVTCNVAHPASSTKVDKKIVPRDCGCKPCICTVPEVSSVFIFPPKPKDVLTITLTPKVTCVVVDISKDDPEVQFSWFVDDVEVHTAQTKPREEQFNSTFRSVSELPIMHQDWLNGKEFKCRVNSAAFPAPIEKTISKTKGRPKAPQVYTIPPPKEQMAKDKVSLTCMITNFFPEDITVEWQWNGQPAENYKNTQPIMDTDGSYFVYSKLNVQKSNWEAGNTFTCSVLHEGLHNHHTEKSLSHSPG
light: DIQMTQTSSSLSASLGDRVTISCRASQEITNYLNWYQQKPDGTIKLLIYYTSRIHSGVSSRFSGSGSGTDYSLTISNLEQEDIATYFCQQGNTIPLTFDTGTKLELKRADAAPTVSIFPPSSEQLTSGGASVVCFLNNFYPKDINVKWKIDGSERQNGVLNSWTDQDSKDSTYSMSSTLTLTKDEYERHNSYTCEATHKTSTSPIVKSFNRNEC
notes: assembled FR/CDR/constant
B7: Mutation 1-18 (antibody)
heavy: EVQMVESGGGLLKPGGSLKLSCAASGFTYSNYAMSWVRQTPEKRLEWVATISSGGSYSFYPDSVKGRFTISRDNAKNTLYLQMLSLRSEDTAMYYCARRDNYPGSSFMDYWGQGSSVTVSSAKTTPPSVYPLAPGSAAQTNSMVTLGCLVKGYFPEPVTVTWNSGSLSSGVHTFPAVLQSDLYTLSSSVTVPSSTWPSQTVTCNVAHPASSTKVDKKIVPRDCGCKPCICTVPEVSSVFIFPPKPKDVLTITLTPKVTCVVVDISKDDPEVQFSWFVDDVEVHTAQTKPREEQFNSTFRSVSELPIMHQDWLNGKEFKCRVNSAAFPAPIEKTISKTKGRPKAPQVYTIPPPKEQMAKDKVSLTCMITNFFPEDITVEWQWNGQPAENYKNTQPIMDTDGSYFVYSKLNVQKSNWEAGNTFTCSVLHEGLHNHHTEKSLSHSPG
light: DIQMTQTSSSLSASLGDRVTISCRASQEITNYLNWYQQKPDGTIKLLIYYTSRIHSGVSSRFSGSGSGTDYSLTISNLEQEDIATYFCQQGNTLPLTFDTGTKLELKRADAAPTVSIFPPSSEQLTSGGASVVCFLNNFYPKDINVKWKIDGSERQNGVLNSWTDQDSKDSTYSMSSTLTLTKDEYERHNSYTCEATHKTSTSPIVKSFNRNEC
notes: assembled FR/CDR/constant
B8: Mutation 1-20 (antibody)
heavy: EVQMVESGGGLLKPGGSLKLSCAASGFTYSNYAMSWVRQTPEKRLEWVATISSGGSYSYYPDSVKGRFTISRDNAKNTLYLQMLSLRSEDTAMYYCARRDNYFGSSFMDYWGQGSSVTVSSAKTTPPSVYPLAPGSAAQTNSMVTLGCLVKGYFPEPVTVTWNSGSLSSGVHTFPAVLQSDLYTLSSSVTVPSSTWPSQTVTCNVAHPASSTKVDKKIVPRDCGCKPCICTVPEVSSVFIFPPKPKDVLTITLTPKVTCVVVDISKDDPEVQFSWFVDDVEVHTAQTKPREEQFNSTFRSVSELPIMHQDWLNGKEFKCRVNSAAFPAPIEKTISKTKGRPKAPQVYTIPPPKEQMAKDKVSLTCMITNFFPEDITVEWQWNGQPAENYKNTQPIMDTDGSYFVYSKLNVQKSNWEAGNTFTCSVLHEGLHNHHTEKSLSHSPG
light: DIQMTQTSSSLSASLGDRVTISCRASQDITNYLNWYQQKPDGTIKLLIYYTSRLHSGVSSRFSGSGSGTDYSLTISNLEQEDIATYFCQQGNTLPLTFDTGTKLELKRADAAPTVSIFPPSSEQLTSGGASVVCFLNNFYPKDINVKWKIDGSERQNGVLNSWTDQDSKDSTYSMSSTLTLTKDEYERHNSYTCEATHKTSTSPIVKSFNRNEC
notes: assembled FR/CDR/constant

In the test the target is T1, CTNI quality control recombinant antigen (human, UniProt P19429 1-210, limits assumed).
T1 construct: Recombinant antigen produced by the applicant; also called CTNI quality control recombinant protein (antigen produced by the company); cardiac troponin I
T1 sequence (P19429 whole entry): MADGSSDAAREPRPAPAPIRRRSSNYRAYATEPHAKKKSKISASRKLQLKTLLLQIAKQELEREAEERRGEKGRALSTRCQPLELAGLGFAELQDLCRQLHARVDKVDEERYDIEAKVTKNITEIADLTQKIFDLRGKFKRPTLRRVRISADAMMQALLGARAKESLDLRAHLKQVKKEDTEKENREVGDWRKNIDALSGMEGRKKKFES
As to the kind of experiment: BLI, antibody on AMC sensor, cTnI in solution. As for the experimental part:
With an AMC sensor, the purified antibody was diluted to 10 μg/ml with PBST, and CTNI quality control recombinant protein (antigen produced by the company) was gradient diluted with PBST to 769.2 nmol/ml, 384.6 nmol/ml, 192.3 nmol/ml, 96.2 nmol/ml, 48.1 nmol/ml, 24 nmol/ml, 12 nmol/ml, and 0 nmol/ml.
One may read the Kd as the concentration at which binding is half-saturated. Usually koff stands for the rate constant with which the complex falls apart. A word on the kon: it is a measure of how fast the partners come together. Consider B1, for which the Kd came to 1.52 nM, the koff amounted to 0.000135 s⁻¹ and the kon turned out to be 88600 M⁻¹ s⁻¹.
For the molecule B2, the dissociation constant Kd amounted to 8.19 nM, the koff was determined as 0.000772 s⁻¹ and the kon was found to be 94300 M⁻¹ s⁻¹.
Consider B3, for which the dissociation constant (Kd) was found to be 9.22 nM, the dissociation rate constant (koff) was determined as 0.000336 s⁻¹ and the kon worked out at 36400 M⁻¹ s⁻¹.
In the case of B4, the Kd was 7.76 nM, the koff was 0.000498 s⁻¹ and the kon was 64200 M⁻¹ s⁻¹.
As for B5, the dissociation constant Kd worked out at 3.8 nM, the koff was determined as 0.000145 s⁻¹ and the kon came to 38100 M⁻¹ s⁻¹.
As for B6, the Kd is 4.12 nM, the off-rate constant (koff) was found to be 0.000354 s⁻¹ and the kon stood at 86000 M⁻¹ s⁻¹.
As for B7, the Kd stood at 4.4 nM, the koff was 0.000253 s⁻¹ and the kon was found to be 57500 M⁻¹ s⁻¹.
On to B8, for which the Kd is 2.87 nM, the koff came to 0.000172 s⁻¹ and the kon was 59800 M⁻¹ s⁻¹.
